This note sets out measurements from publication PMC6949303.

Test [1] has as its target Biotinylated JW8-IgE (human). As to the kind of experiment: ELISA; FcεRIα immobilised at 30 nM; biotinylated JW8-IgE titrated (60–0.001 nM) or 0.78 nM pre-incubated 30 min with anti-IgE antibodies (0.0078–600 nM); streptavidin-HRP. (In general: In an ELISA, binding on a coated surface is turned into a signal by an enzyme label.)
Test [2] deals with Human monoclonal Sus11-IgE (human). As to the kind of experiment: SPR; Biacore X100, CM5 chip, HBS-EP+, 10 μl/min; anti-IgE Le27 immobilised (3000 RU), 30 nM Sus11-IgE captured (~100 RU); 1.56–25 nM antibodies/fragments injected 120 s, dissociation 240 s; 1:1 langmuir fit.

B1: Ligelizumab IgG (antibody, V domains shown)
VH: QVQLVQSGAEVMKPGSSVKVSCKASGYTFSWYWLEWVRQAPGHGLEWMGEIDPGTFTTNYNEKFKARVTFTADTSTSTAYMELSSLRSEDTAVYYCARFSHFSGSNYDYFDYWGQGTLVTVSS
VL: EIVMTQSPATLSVSPGERATLSCRASQSIGTNIHWYQQKPGQAPRLLIYYASESISGIPARFSGSGSGTEFTLTISSLQSEDFAVYYCQQSWSWPTTFGGGTKVEIK
Usually Kd stands for a measure of binding affinity in units of concentration. As a reminder, the koff is the first-order rate constant of dissociation. High values mean fast dissociation, low ones slow dissociation. As a reminder, the kon is the rate constant with which the complex forms. B1: the fold higher potency than omalizumab in inhibiting IgE binding to FcεRIα in test [1] turned out to be 20 fold. In test [2], this molecule came in with a Kd of 0.0178 nM, a koff of 3.3e-05 s⁻¹ and a kon of 1.8e+06 M⁻¹ s⁻¹.

B2: Ligelizumab Fab (Fab, V domains shown)
VH: QVQLVQSGAEVMKPGSSVKVSCKASGYTFSWYWLEWVRQAPGHGLEWMGEIDPGTFTTNYNEKFKARVTFTADTSTSTAYMELSSLRSEDTAVYYCARFSHFSGSNYDYFDYWGQGTLVTVSS
VL: EIVMTQSPATLSVSPGERATLSCRASQSIGTNIHWYQQKPGQAPRLLIYYASESISGIPARFSGSGSGTEFTLTISSLQSEDFAVYYCQQSWSWPTTFGGGTKVEIK
In test [2], B2 yielded a Kd of 0.035 nM, a koff of 0.00032 s⁻¹ and a kon of 9.2e+06 M⁻¹ s⁻¹.

B3: Ligelizumab F(ab′)2 (protein)
VH: QVQLVQSGAEVMKPGSSVKVSCKASGYTFSWYWLEWVRQAPGHGLEWMGEIDPGTFTTNYNEKFKARVTFTADTSTSTAYMELSSLRSEDTAVYYCARFSHFSGSNYDYFDYWGQGTLVTVSS
VL: EIVMTQSPATLSVSPGERATLSCRASQSIGTNIHWYQQKPGQAPRLLIYYASESISGIPARFSGSGSGTEFTLTISSLQSEDFAVYYCQQSWSWPTTFGGGTKVEIK
As for B3, in test [2], the Kd amounted to 0.0121 nM, the koff was 5.1e-05 s⁻¹ and the kon turned out to be 4.2e+06 M⁻¹ s⁻¹.
